# Laboratory results taken from publication PMC7684300 (Cell Discovery, 2020).
# B1: human ORC5 (origin recognition complex subunit 5), full-length (natural protein, UniProt O43913 1-435, looked up)
# chain: MPHLENVVLCRESQVSILQSLFGERHHFSFPSIFIYGHTASGKTYVTQTLLKTLELPHVFVNCVECFTLRLLLEQILNKLNHLSSSEDGCSTEITCETFNDFVRLFKQVTTAENLKDQTVYIVLDKAEYLRDMEANLLPGFLRLQELADRNVTVLFLSEIVWEKFRPNTGCFEPFVLYFPDYSIGNLQKILSHDHPPEYSADFYAAYINILLGVFYTVCRDLKELRHLAVLNFPKYCEPVVKGEASERDTRKLWRNIEPHLKKAMQTVYLREISSSQWEKLQKDDTDPGQLKGLSAHTHVELPYYSKFILIAAYLASYNPARTDKRFFLKHHGKIKKTNFLKKHEKTSNHLLGPKPFPLDRLLAILYSIVDSRVAPTANIFSQITSLVTLQLLTLVGHDDQLDGPKYKCTVSLDFIRAIARTVNFDIIKYLYDFL
# notes: Origin recognition complex subunit 5, human, full-length codon-optimized synthetic gene; Samples for cryo-EM were mildly cross-linked with glutaraldehyde (GraFix); also called HsORC5; source: Sf21 insect cells, MultiBac baculovirus, co-overexpressed with the other ORC subunits; not shown: HA, C-terminal, kept
# B2: human ORC4 (origin recognition complex subunit 4), full-length (natural protein, UniProt O43929 1-436, looked up)
# chain: MSSRKSKSNSLIHTECLSQVQRILRERFCRQSPHSNLFGVQVQYKHLSELLKRTALHGESNSVLIIGPRGSGKTMLINHALKELMEIEEVSENVLQVHLNGLLQINDKIALKEITRQLNLENVVGDKVFGSFAENLSFLLEALKKGDRTSSCPVIFILDEFDLFAHHKNQTLLYNLFDISQSAQTPIAVIGLTCRLDILELLEKRVKSRFSHRQIHLMNSFGFPQYVKIFKEQLSLPAEFPDKVFAEKWNENVQYLSEDRSVQEVLQKHFNISKNLRSLHMLLMLALNRVTASHPFMTAVDLMEASQLCSMDSKANIVHGLSVLEICLIIAMKHLNDIYEEEPFNFQMVYNEFQKFVQRKAHSVYNFEKPVVMKAFEHLQQLELIKPMERTSGNSQREYQLMKLLLDNTQIMNALQKYPNCPTDVRQWATSSLSWL
# notes: Origin recognition complex subunit 4, human, full-length codon-optimized synthetic gene; No tag is named for this subunit; Samples for cryo-EM were mildly cross-linked with glutaraldehyde (GraFix); also called HsORC4; source: Sf21 insect cells, MultiBac baculovirus, co-overexpressed with the other ORC subunits
# B3: human ORC2 (origin recognition complex subunit 2), full-length (natural protein, UniProt Q13416 1-577, looked up)
# chain: MSKPELKEDKMLEVHFVGDDDVLNHILDREGGAKLKKERAQLLVNPKKIIKKPEYDLEEDDQEVLKDQNYVEIMGRDVQESLKNGSATGGGNKVYSFQNRKHSEKMAKLASELAKTPQKSVSFSLKNDPEITINVPQSSKGHSASDKVQPKNNDKSEFLSTAPRSLRKRLIVPRSHSDSESEYSASNSEDDEGVAQEHEEDTNAVIFSQKIQAQNRVVSAPVGKETPSKRMKRDKTSDLVEEYFEAHSSSKVLTSDRTLQKLKRAKLDQQTLRNLLSKVSPSFSAELKQLNQQYEKLFHKWMLQLHLGFNIVLYGLGSKRDLLERFRTTMLQDSIHVVINGFFPGISVKSVLNSITEEVLDHMGTFRSILDQLDWIVNKFKEDSSLELFLLIHNLDSQMLRGEKSQQIIGQLSSLHNIYLIASIDHLNAPLMWDHAKQSLFNWLWYETTTYSPYTEETSYENSLLVKQSGSLPLSSLTHVLRSLTPNARGIFRLLIKYQLDNQDNPSYIGLSFQDFYQQCREAFLVNSDLTLRAQLTEFRDHKLIRTKKGTDGVEYLLIPVDNGTLTDFLEKEEEEA
# notes: Origin recognition complex subunit 2, human, full-length codon-optimized synthetic gene; Samples for cryo-EM were mildly cross-linked with glutaraldehyde (GraFix); also called HsORC2; source: Sf21 insect cells, MultiBac baculovirus, co-overexpressed with the other ORC subunits; anti-HA then Streptactin beads for HsORC1–5); not shown: 3x Flag, N-terminal, kept
# Columns and labels:
# [1] = biological target: T1, human ORC1 (origin recognition complex subunit 1), full-length (human, UniProt Q13415 1-861); test: cryo-EM structure; HsORC1–5 purified by two steps (anti-HA beads, Streptactin beads) after high-salt treatment, mild fixation by GraFix; map at 4.4 Å, State I 5.0 Å, State II 4.8 Å, four subgroups by local classification on ORC1-AAA+; details: both partners purified
# T1 construct: Origin recognition complex subunit 1, human, full-length codon-optimized synthetic gene; No removal of the tag is described; HsORC1–5 was eluted from Streptactin beads with desthiobiotin; Samples for cryo-EM were mildly cross-linked with glutaraldehyde (GraFix); also called HsORC1; source: Sf21 insect cells, MultiBac baculovirus, co-overexpressed with the other ORC subunits; not shown: twin-strep …
# T1 sequence (looked up): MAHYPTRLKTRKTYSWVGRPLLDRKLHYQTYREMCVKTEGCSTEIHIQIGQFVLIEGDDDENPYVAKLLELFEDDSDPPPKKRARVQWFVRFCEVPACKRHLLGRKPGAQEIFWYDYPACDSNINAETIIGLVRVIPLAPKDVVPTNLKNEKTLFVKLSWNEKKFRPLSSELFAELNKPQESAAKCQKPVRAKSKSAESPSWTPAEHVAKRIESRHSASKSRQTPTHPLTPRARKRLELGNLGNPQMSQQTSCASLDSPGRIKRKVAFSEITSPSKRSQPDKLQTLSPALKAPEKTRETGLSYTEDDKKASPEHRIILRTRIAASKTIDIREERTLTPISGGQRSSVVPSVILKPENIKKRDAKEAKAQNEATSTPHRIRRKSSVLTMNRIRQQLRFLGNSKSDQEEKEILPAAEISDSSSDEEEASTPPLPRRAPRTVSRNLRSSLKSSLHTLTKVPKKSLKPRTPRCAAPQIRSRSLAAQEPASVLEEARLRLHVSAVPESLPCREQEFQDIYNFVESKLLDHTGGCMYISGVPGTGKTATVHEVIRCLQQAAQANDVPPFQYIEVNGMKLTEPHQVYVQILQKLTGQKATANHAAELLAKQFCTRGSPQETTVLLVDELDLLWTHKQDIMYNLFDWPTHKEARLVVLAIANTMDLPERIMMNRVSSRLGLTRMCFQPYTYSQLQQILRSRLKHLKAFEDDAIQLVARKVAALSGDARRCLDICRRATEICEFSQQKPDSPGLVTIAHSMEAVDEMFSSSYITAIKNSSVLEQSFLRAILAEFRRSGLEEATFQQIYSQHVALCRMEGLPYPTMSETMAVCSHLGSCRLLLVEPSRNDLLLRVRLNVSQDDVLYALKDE
# [2] = biological target: T1, human ORC1 (origin recognition complex …); test: co-IP; anti-Flag immunoprecipitation (M2-flag affinity beads, eluted with 0.5 mg/mL flag peptide) of N-terminal Flag-tagged ORC2 from soluble lysate of insect cells co-overexpressing ORC1 to ORC6; lysis buffer A: 25 mM HEPES-KOH pH 7.6, 0.2 M KCl, 5 mM ATP, 10% glycerol, 0.05% NP-40; details: partners not purified
Binder,binding result [1],binding result [2]
B1,binds,–
B2,binds,–
B3,–,binds
